Substrate in data set [1]: [N-]=[N+]=C1C=C(/C=C/C=C/C(=O)O)C=CC1=O
The data set can be described thus: purified protein. The format is biochemical, Streptomyces sp. Particulars: 800 µM NADPH, 3-DAA made in situ by CmaA6, 25-400 µM, pH 8.0.

Substrate in data set [2]: NC(=O)C1=CN([C@@H]2O[C@H](COP(=O)(O)OP(=O)(O)OC[C@H]3O[C@@H](n4cnc5c(N)ncnc54)[C@H](OP(=O)(O)O)[C@@H]3O)[C@@H](O)[C@H]2O)C=CC1
The data set can be described thus: purified protein. The class given is biochemical, Streptomyces sp. Particulars: 3-DAA made in situ by CmaA6 from 1.0 mM 3-AAA, pH 8.0, varied: cofactor.

B1: AvaA7 (Streptomyces sp.) (protein)
chain: MRVLVAGATGVIGHPLVGALRARGHNVSALVRDASRAPEADRVVVADALDREAVLSAVSAARPEVVVHQLTALRLLRDDPPEAFAQTARLRTEGTAHLVEAARAAGARRLVAQSIAFAAAPQGPPVLDEDAPLYVDAPDPGWAATVRAVAELERLVASSDLAGLVLRYGTLYGPGTGYARDGGTALRVLAGKLPLPEGGAGVTSFLHVDDAVGAAVAAVESEATGCLHVTDDEPAPAAQWLPHYARTLGAPPPRTLPAALAPRLLGWFMTHQLTTARGAANDRARTALGWKPTHPSWRDGLGRE
notes: recombinant
One may read the Km as the concentration of substrate that gives half-maximal velocity. A word on the kcat: it is the maximal rate divided by the concentration of active sites. The term kcat/Km denotes the turnover number divided by the Michaelis constant. With B1, in “purified protein [1]”, the Km is recorded as 152 ± 31 µM, the kcat is 10.2 ± 0.917 s⁻¹ and the kcat/Km is 66700 M⁻¹ s⁻¹. For the same protein, in “purified protein [2]”, the Km stood at 138 ± 10 µM, the kcat is 4.433 ± 0.0333 s⁻¹ and the kcat/Km was 31700 M⁻¹ s⁻¹.

The values above are taken from paper PMC10777205, “Identification of the p-coumaric acid biosynthetic gene cluster in Kutzneria albida: insights into the diazotization-dependent deamination pathway” (Beilstein Journal of Organic Chemistry, 2024).
